According to article doi:10.1101/2020.01.02.893016 (bioRxiv, 2020):
Substitutions are numbered along the chain they refer to. Names and notes keep the numbering of the source.

Biological target: T1, ROOTY (RTY) protein, wild type, C-S lyase (Arabidopsis thaliana, UniProt Q9SIV0 1-462)
T1 sequence (looked up): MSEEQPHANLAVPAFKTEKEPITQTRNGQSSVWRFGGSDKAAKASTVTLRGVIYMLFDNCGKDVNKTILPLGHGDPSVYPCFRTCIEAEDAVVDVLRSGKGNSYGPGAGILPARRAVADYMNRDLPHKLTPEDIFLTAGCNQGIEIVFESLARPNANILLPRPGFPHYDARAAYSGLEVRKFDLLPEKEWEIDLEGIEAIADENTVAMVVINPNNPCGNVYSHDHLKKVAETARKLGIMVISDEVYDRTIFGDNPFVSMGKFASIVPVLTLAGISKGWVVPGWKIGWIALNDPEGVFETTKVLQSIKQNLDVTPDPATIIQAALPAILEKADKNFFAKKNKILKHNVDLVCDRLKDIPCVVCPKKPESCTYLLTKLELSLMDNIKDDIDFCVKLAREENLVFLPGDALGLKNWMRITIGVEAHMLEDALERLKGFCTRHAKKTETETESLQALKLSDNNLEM
Assay: two-hybrid

B1: ROOTY (RTY) protein, D315N mutant (TG8B allele) (enzyme, Arabidopsis thaliana, UniProt Q9SIV0 1-462, looked up)
chain: T1 sequence (looked up) with D315N
beta-galactosidase activity relative to WT-WT: ~80%
